Measurements reported in patent US20140287507A1.

Molecular target: integrin β1 (receptor subunit on the seeded cells, blocked with anti-β1 monoclonal antibody) (hamster (baby hamster kidney cells))
Experiment: cell-based or functional assay

Q: “TMV-RGD1 (Tobacco mosaic virus particle whose coat protein carries the insert GRGDSPG extended after T159) (from UniProt P69687 2-159)” was tested. Which cell attachment on virus coated plate after blocking the cells with integrin specific monoclonal antibody (% drop in attachment) did it give?
A: 25
